Experimental data: patent US20240182864A1, “NOVEL CHEMICAL COMBINATIONS AND METHODS OF USE THEREOF, TOWARDS DIFFERENTIATION OF HUMAN PROGENITOR CELLS INTO FUNCTIONAL BETA CELLS” (Salk Institute for Biological Studies, priority 2021, published 2024)

Tested on: H1 hESCs
Assay: Generation of pancreatic progenitors (stages 1-4) and PP 3D clusters, flow cytometry for PDX1/NKX6.1
Assay type: cell-based, human
Procedure: hESCs were maintained as feeder-free in mTeSR™1 (STEMCELL Technologies Inc.) according to the manufacturer's instructions. Before differentiation, adherent hESCs (at ˜90% confluence) were rinsed with PBS and then incubated with Accutase (Millipore) for 6-8 min at 37° C. Dissociated single cells were rinsed twice with DMEM/F12 and spun at 300 g for 3 min. The resulting cells were re-suspended in mTeSR™1 which was supplied with 10μM Y27632 (Sigma-Aldrich), and seeded on 1:30 diluted Matrigel (BD Biosciences)-coated dishes at a density of 55,000 cells/cm^2. The next day, the medium was exchanged for mTeSR™MI and maintained for one more day prior to differentiation initiation.
Stage 1: Definitive Endoderm (3 days). […] Each 800 ml MS12 medium was made with 744 ml MCDB131 medium (ThermoFisher), 3.2 ml 45% glucose (Sigma), 20 ml 20% fat-acid free BSA, and 16 ml 7.5% sodium bicarbonate (Gibco).
Stage 2: Posterior Foregut (3 days): after PBS rinse, cells are exposed to MS12 medium with KGF (Peprotech, 50 ng/ml), B27 (Gibco, 100×), Vitamin C (Vc, 0.25 mM, sigma) and dorsomorphin (0.75 μM). Cells were fed with fresh medium daily.
Stage 3: Pancreatic endoderm (3 days): After PBS rinse, cells were exposed to DMEM with B27 (100×), retinoic acid (RA, 2 μM, Sigma), Noggin (100 ng/ml, Peprotech), SANTI (0.25 μM, sigma), Vitamin C (Vc, 0.25 mM, sigma), Pen/Strep (100×, Gibco) and Glutamax (100×, Gibco). Cells were fed with fresh medium every other day.
Stage 4: Pancreatic progenitor (3-4 days): After PBS rinse, cells were exposed to DMEM with B27 (100×), EGF (100 ng/ml, Peprotech)+Nicotinamide (NICO, 10 mM; Sigma)+Noggin (100ng/ml)+Vc (0.25 mM). Cells were fed with fresh medium every other day.
V-bottom plate based aggregation: stage-4 cells were rinsed with PBS and then incubated with Accutase (Millipore) for 10-15 min at 37° C. Dissociated single cells were rinsed twice with DMEM/F12 and spun at 300 g for 3 min. The resulting cells were re-suspended in an aggregation medium supplied with 10μM Y27632 (Sigma-Aldrich). Cell solution with 0.1-0.4 (according to experimental design) million cells was added into each well of V-bottom 96-well plate, followed by a spun at 300 g for 3 min. The plate was put into 37° C. incubator for 8-12 hours to form clusters. Aggregation medium was made of V4b-Medium+heparin (Sigma, H3149, 10 μg/ml)+ZnSO4 (10 μM, sigma, Z0251)+LDN193189 (LDN, Tocris, 100 nM)+T3 (1 μM, Sigma, T6397)+RA ([…])+SANTI (0.25 μM: Tocris)+GABA (1 mM, Sigma)+human EGF (100 ng/ml, Peprotech)+NICO (10 mM)+VC (0.25 mM). V4b-Medium (800 ml) was made of 360 ml MCDB 131 medium+180 ml F12 medium+180 ml KO-DMEM medium+3.9 ml Glucose (45%, Sigma)+80ml 20% FF-BSA+16 ml Sodium Bicarbonate (7.5%)+4 ml ITX+8 ml Pen/Strep+8ml Glutamax: all items were purchased from Thermo Fisher Scientific unless otherwise indicated.
Single-cell suspension from cell cultures: Differentiated hESC cultures were rinsed with PBS and then incubated with 0.25% trypsin-EDTA (Life Technologies) at 37° C. for 1-3 minutes. The trypsin was neutralized with MEF medium. The dissociated cells were rinsed twice in PBS or DMEM/F12 medium for further analysis. For intracellular antibody staining, single cells were fixed in 200 μL of BD Cytofix/Cytoperm Buffer (BD Biosciences) at 4° C. for 20 minutes followed by three washes in BD Perm/Wash Buffer. Fixed cells were incubated in 150 μL of primary antibody buffer at 4° C. for 1 hour, followed by 30 minutes in a secondary antibody (if there is a secondary antibody) buffer after being rinsed twice in Perm/Wash Buffer. Stained cells were washed twice in Perm/Wash Buffer prior to analyses. The acquired data were analyzed by FlowJo.
Efficient generation of PP 3D-clusters is responsible for generating functional βcells. An hPSC reporter line with NKX6.1-NLS-GFP has been generated by homologous recombination (FIG. 1A and data not shown), which aids in the study of functional β cell production protocols. […]

[1] = Constant high-dose of Activin-A (115-115-115 ng/ml day 1-day 2-day 3)
[2] = Constant low-dose of Activin-A (100-100-100 ng/ml day 1-day 2-day 3)
[3] = Decreasing gradient dose of Activin-A (115-110-100 ng/ml day 1-day 2-day 3)

B1: Activin-A: a TGFβ family member used at stage 1 (protein, UniProt P08476 311-426, looked up)
Inhibin beta A chain: GLECDGKVNICCKKQFFVSFKDIGWNDWIIAPSGYHANYCEGECPSHIAGTSGSSLSFHSTVINHYRMRGHSPFANLKSCCVPTKLRPMSMLYYDDGQNIIKKDIQNMIVEECGCS
modifications: Inhibin beta A chain
- NKX6.1-positve cells [1]: ~20%-50%
- PDX1-positve cells [1]: ~90%
- PDX1-postive/NKX6.1-positve cells [1]: ~20%-50%
- NKX6.1-positve cells [2]: ~15%-50%
- PDX1-positve cells [2]: ~50%-80%
- PDX1-postive/NKX6.1-positve cells [2]: ~15%-50%
- NKX6.1-positve cells [3]: ~80%
- PDX1-positve cells [3]: ~93%
- PDX1-postive/NKX6.1-positve cells [3]: ~80%
- cell density and cell heterogeneity at stage 4 (constant low-dose Activin-A): appropriate cell density but resulting in high cell heterogeneity at stage 4
- cell proliferation and cell density (high-dose Activin-A): severely reduced cell proliferation and resulted in suboptimal cell density
